Reference: patent US20150201663

Target: T1, E(Edans)-AAHAAK-(Dabcyl)-NH2 (not fully specified)
T1 chain: AAHAAK

B1: aspergillopepsin II (An01g00530) (protein)
chain: EDYSSNWAGAVLIGDGYTKVTGEFTVPSVSAGSSSSSGYGGGYGYYKNKRQSEEYCASAWVGIDGDTCETAILQTGVDFCYEDGQTSYDAWYEWYPDYAYDFNDITISEGDTIKVTVEATSKSSGSATVENLTTGQSVTHTFSGNVEGDLCETNAEWIVEDFESGDSLVAFADFGSVTFTNAEATSDGSTVGPSDATVMDIEQDGTVLTETSVSGDSVTVTYV
  enzyme activity in relative fluorescent units (rfu) per minute per mg of protein; cleavage of FRET peptide at pH 4: yields by the highest rfu value for aspergillopepsin II
  mass spectrometry of the substrate's cleavage fragments (E(Edans)-AAH and AAK-(Dabcyl)NH2): aspergillopepsin II cleaves histidine at the C-terminal in the E(Edans)-AAHAAK-(Dabcyl)NH2 substrate
